The series is described as follows: total protein half-life in vivo (active degradation + dilution); higher = more stable protein.
[1] abbreviates: E. coli NCM3722 delta-clpP delta-lon delta-hslV, growth: N-lim chemostat, doubling time 6 h.
Setting [2] is: E. coli NCM3722 delta-clpP, growth: N-lim chemostat, doubling time 6 h.
Where [3] appears, read: E. coli NCM3722 delta-hslV, growth: N-lim chemostat, doubling time 6 h.
Where [4] appears, read: E. coli NCM3722 delta-lon, growth: N-lim chemostat, doubling time 6 h.
Where [5] appears, read: E. coli NCM3722 delta-smpB, growth: N-lim chemostat, doubling time 6 h.
Where [6] appears, read: wild type E. coli NCM3722, growth: C-lim chemostat, doubling time 3 h.
Where [7] appears, read: wild type E. coli NCM3722, growth: C-lim chemostat, doubling time 6 h.
Setting [8] is: wild type E. coli NCM3722, growth: C-lim chemostat, doubling time 12 h.
The mark [9] stands for this setting: wild type E. coli NCM3722, growth: N-lim chemostat, doubling time 6 h.
Setting [10] is: wild type E. coli NCM3722, growth: N-lim chemostat, doubling time 12 h.
Setting [11] is: wild type E. coli NCM3722, growth: P-lim chemostat, doubling time 6 h.
Where [12] appears, read: wild type E. coli NCM3722, growth: P-lim chemostat, doubling time 12 h.

± gives the standard deviation of the averaged measurements.

As for “MTKSELIERLATQQSHIPAKTVEDAVKEMLEHMASTLAQGERIEIRGFGSFSLHYRAPRTGRNPKTGDKVELEGKYVPHFKPGKELRDRANIYG [P0A6Y1]”, the “total protein half-life in vivo” value is, setting by setting: under setting [1], 6.88 ± 0.81 h; under setting [2], 5.26 ± 0.3 h; under setting [3], 5.99 ± 1.1 h; under setting [4], 6.3 ± 0.4 h; under setting [5], 4.64 ± 0.21 h; under setting [6], 2.47 ± 0.093 h. The “total protein half-life in vivo” value runs as follows: under setting [7], 4.3 ± 0.44 h; under setting [8], 6.05 ± 0.37 h; under setting [9], 4.71 ± 0.18 h; under setting [10], 8.31 ± 2.4 h; under setting [11], 2.62 ± 0.24 h; under setting [12], 5.3658 ± 0.0042 h.

For “MEGSDFLLAGVLFLFAAVAAVPLASRLGIGAVLGYLLAGIAIGPWGLGFISDVDEILHFSELGVVFLMFIIGLELNPSKLWQLRRSIFGVGAAQVLLSAALLAGLLMLTDFAWQAAVVGGIGLAMSSTAMALQLMREKGMNRSESGQLGFSVLLFQDLAVIPALALVPLLAGSADEHFDWMKVGMKVLAFVGMLIGGRYLLRPVFRFIAASGVREVFTAATLLLVLGSALFMDALGLSMALGTFIAGVLLAESEYRHELETAIDPFKGLLLGLFFISVGMSLNLGVLYTHLLWVVISVVVLVAVKILVLYLLARLYGVRSSERMQFAGVLSQGGEFAFVLFSTASSQRLFQGDQMALLLVTVTLSMMTTPLLMKLVDKWLSRQFNGPEEEDEKPWVNDDKPQVIVVGFGRFGQVIGRLLMANKMRITVLERDISAVNLMRKYGYKVYYGDATQVDLLRSAGAEAAESIVITCNEPEDTMKLVEICQQHFPHLHILARARGRVEAHELLQAGVTQFSRETFSSALELGRKTLVTLGMHPHQAQRAQLHFRRLDMRMLRELIPMHADTVQISRAREARRELEEIFQREMQQERRQLDGWDEFE”, the “total protein half-life in vivo” value is, setting by setting: under setting [1], 7.22 ± 0.56 h; under setting [4], 6.81 ± 1.1 h; under setting [5], 6.39 ± 1.5 h; under setting [7], 5.87 ± 0.17 h; under setting [9], 5.996 ± 0.021 h; under setting [10], 13.6 ± 2 h. The “total protein half-life in vivo” value under setting [11] amounted to 7.09 ± 1.1 h.

For the sequence “MNQVAVVIGGGQTLGAFLCHGLAAEGYRVAVVDIQSDKAANVAQEINAEYGESMAYGFGADATSEQSVLALSRGVDEIFGRVDLLVYSAGIAKAAFISDFQLGDFDRSLQVNLVGYFLCAREFSRLMIRDGIQGRIIQINSKSGKVGSKHNSGYSAAKFGGVGLTQSLALDLAEYGITVHSLMLGNLLKSPMFQSLLPQYATKLGIKPDQVEQYYIDKVPLKRGCDYQDVLNMLLFYASPKASYCTGQSINVTGGQVMF”, the “total protein half-life in vivo” value is, setting by setting: under setting [1], 4.14 h; under setting [6], 1.19 ± 0.41 h; under setting [8], 1.43 h.

“MGKLGENVPLLIDKAVDFMASSQAFREYLKKLPPRNAIPSGIPDESVPLYLQRLEYYRRLYRPKQVEGQ [Q2M7R5]”: the “total protein half-life in vivo” value was 4.46 ± 1.4 h under setting [2]; 3.56 h under setting [3]; 3.4 h under setting [4]; 3.22 ± 0.16 h under setting [5]; 1.99 ± 0.42 h under setting [6]; 4.09 ± 0.43 h under setting [7]. For the same sequence, the “total protein half-life in vivo” value was determined as 4.69 h under setting [8]; 2.94 ± 0.43 h under setting [9]; 4.57 ± 1.1 h under setting [10]; 3.73 ± 0.57 h under setting [11]; 8.27 ± 0.33 h under setting [12].

For “MSAIEVKNLVKKFHGQTVLHGIDLEVKPGEVVAIIGPSGSGKTTLLRSINLLEQPEAGTITVGDITIDTARSLSQQKSLIRQLRQHVGFVFQNFNLFPHRTVLENIIEGPVIVKGEPKEEATARARELLAKVGLAGKETSYPRRLSGGQQQRVAIARALAMRPEVILFDEPTSALDPELVGEVLNTIRQLAQEKRTMVIVTHEMSFARDVADRAIFMDQGRIVEQGAAKALFADPEQPRTRQFLEKFLLQ”, the “total protein half-life in vivo” value under setting [2] was 5.314 ± 0.015 h; the “total protein half-life in vivo” value under setting [3] was 5.44 ± 0.48 h; the “total protein half-life in vivo” value under setting [4] came to 6.65 ± 1.8 h; the “total protein half-life in vivo” value under setting [5] stood at 5.38 ± 0.14 h; the “total protein half-life in vivo” value under setting [6] is 3.11 ± 0.18 h; the “total protein half-life in vivo” value under setting [7] came out at 5.25 ± 0.71 h. Besides, the “total protein half-life in vivo” value worked out at 10.2 ± 1.1 h under setting [8]; 6.41 ± 1.5 h under setting [9]; 9.13 ± 1.8 h under setting [10]; 5.16 ± 0.33 h under setting [11]; 12.2 ± 1.3 h under setting [12].

With “MKNASTVSEDTASNQEPTLHRGLHNRHIQLIALGGAIGTGLFLGIGPAIQMAGPAVLLGYGVAGIIAFLIMRQLGEMVVEEPVSGSFAHFAYKYWGPFAGFLSGWNYWVMFVLVGMAELTAAGIYMQYWFPDVPTWIWAAAFFIIINAVNLVNVRLYGETEFWFALIKVLAIIGMIGFGLWLLFSGHGGEKASIDNLWRYGGFFATGWNGLILSLAVIMFSFGGLELIGITAAEARDPEKSIPKAVNQVVYRILLFYIGSLVVLLALYPWVEVKSNSSPFVMIFHNLDSNVVASALNFVILVASLSVYNSGVYSNSRMLFGLSVQGNAPKFLTRVSRRGVPINSLMLSGAITSLVVLINYLLPQKAFGLLMALVVATLLLNWIMICLAHLRFRAAMRRQGRETQFKALLYPFGNYLCIAFLGMILLLMCTMDDMRLSAILLPVWIVFLFMAFKTLRRK”, the “total protein half-life in vivo” value by setting is: under setting [1], 5.66 h; under setting [2], 5.51 h; under setting [5], 5.23 ± 0.36 h; under setting [12], over 16 h.

On to “MRALPICLVALMLSGCSMLSRSPVEPVQSTAPQPKAEPAKPKAPRATPVRIYTNAEELVGKPFRDLGEVSGDSCQASNQDSPPSIPTARKRMQINASKMKANAVLLHSCEVTSGTPGCYRQAVCIGSALNITAK”, for which the “total protein half-life in vivo” value came to 5.47 ± 0.43 h under setting [1]; 5.57 ± 0.38 h under setting [2]; 6.58 ± 0.75 h under setting [3]; 6.404 ± 0.011 h under setting [4]; 5.51 ± 0.33 h under setting [5]; 2.89 ± 0.62 h under setting [6]. Besides, the “total protein half-life in vivo” value is 5.65 ± 0.51 h under setting [7]; 12.4 ± 3.6 h under setting [8]; 5.65 ± 0.16 h under setting [9]; 14.7 ± 1.2 h under setting [10]; 6.5 ± 1.4 h under setting [11]; 13.4 ± 0.85 h under setting [12].

On to “MTKKKAHKPGSATIALNKRARHEYFIEEEFEAGLALQGWEVKSLRAGKANISDSYVLLRDGEAFLFGANITPMAVASTHVVCDPTRTRKLLLNQRELDSLYGRVNREGYTVVALSLYWKNAWCKVKIGVAKGKKQHDKRSDIKEREWQVDKARIMKNAHR [P0A832]”, for which the “total protein half-life in vivo” value under setting [1] was determined as 6.34 ± 0.4 h; the “total protein half-life in vivo” value under setting [2] was 6.17 ± 1.2 h; the “total protein half-life in vivo” value under setting [3] is 6.55 ± 0.43 h; the “total protein half-life in vivo” value under setting [6] amounted to 3.07 ± 0.46 h; the “total protein half-life in vivo” value under setting [8] came to 13.1 ± 0.6 h; the “total protein half-life in vivo” value under setting [9] is 5.94 ± 0.25 h. The “total protein half-life in vivo” value stood at 5.73 ± 0.2 h under setting [11] and 11.7 ± 0.31 h under setting [12].

The record behind these values is the supplement of paper PMC11246515.
